From article PMC2886590

Target: MLL PHD3 finger (residues 1565-1627), GST cleaved (human) (UniProt Q03164)
Assay: other fluorescence titration

Sequence of MLL PHD3 finger (residues 1565-1627), GST cleaved (human) (Q03164 1565-1627): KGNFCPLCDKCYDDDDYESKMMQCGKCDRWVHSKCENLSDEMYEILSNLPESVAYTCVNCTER

Substance: H3K4me3 peptide (12-mer histone tail peptide)
- Kd: 19 µM
